Laboratory results taken from article PMC3508374 (Molecular microbiology, 2012).

B1: Bacillus subtilis Fur (ferric uptake regulator), wild type (natural protein, UniProt P54574 1-149, looked up)
chain: MENRIDRIKKQLHSSSYKLTPQREATVRVLLENEEDHLSAEDVYLLVKEKSPEIGLATVYRTLELLTELKVVDKINFGDGVSRYDLRKEGAAHFHHHLVCMECGAVDEIEEDLLEDVEEIIERDWKFKIKDHRLTFHGICHRCNGKETE
B2: Bacillus subtilis Fur H96A (site 3 mutant) (natural protein, UniProt P54574 1-149, looked up)
chain: MENRIDRIKKQLHSSSYKLTPQREATVRVLLENEEDHLSAEDVYLLVKEKSPEIGLATVYRTLELLTELKVVDKINFGDGVSRYDLRKEGAAHFHAHLVCMECGAVDEIEEDLLEDVEEIIERDWKFKIKDHRLTFHGICHRCNGKETE
B3: Bacillus subtilis Fur H132A (site 3 mutant) (natural protein, UniProt P54574 1-149, looked up)
chain: MENRIDRIKKQLHSSSYKLTPQREATVRVLLENEEDHLSAEDVYLLVKEKSPEIGLATVYRTLELLTELKVVDKINFGDGVSRYDLRKEGAAHFHHHLVCMECGAVDEIEEDLLEDVEEIIERDWKFKIKDARLTFHGICHRCNGKETE
B4: Bacillus subtilis Fur H97A (site 2 mutant) (natural protein, UniProt P54574 1-149, looked up)
chain: MENRIDRIKKQLHSSSYKLTPQREATVRVLLENEEDHLSAEDVYLLVKEKSPEIGLATVYRTLELLTELKVVDKINFGDGVSRYDLRKEGAAHFHHALVCMECGAVDEIEEDLLEDVEEIIERDWKFKIKDHRLTFHGICHRCNGKETE
B5: Bacillus subtilis Fur H37A (site 2 mutant) (natural protein, UniProt P54574 1-149, looked up)
chain: MENRIDRIKKQLHSSSYKLTPQREATVRVLLENEEDALSAEDVYLLVKEKSPEIGLATVYRTLELLTELKVVDKINFGDGVSRYDLRKEGAAHFHHHLVCMECGAVDEIEEDLLEDVEEIIERDWKFKIKDHRLTFHGICHRCNGKETE
B6: Bacillus subtilis Fur H95A (site 2 mutant) (natural protein, UniProt P54574 1-149, looked up)
chain: MENRIDRIKKQLHSSSYKLTPQREATVRVLLENEEDHLSAEDVYLLVKEKSPEIGLATVYRTLELLTELKVVDKINFGDGVSRYDLRKEGAAHFAHHLVCMECGAVDEIEEDLLEDVEEIIERDWKFKIKDHRLTFHGICHRCNGKETE

Molecular target: the molecule itself
Test: SEC

Stoichiometry N, 2:
B1
B2
B3
B4
B5
B6
